Here are results for 17 sequences from the DeepSol protein solubility set.

A short description of the series: soluble on expression in E. coli; label from the status in PepcDB or PDB records.
Regarding “MTTAHISGDWRTRYQHVTSFYFKTNHKVWCKVILSLLHTHIPMIIFIDMKGVNMDLIIQTFPLDGKTLYYVQCPVCKNNRILNSGANVSRIISDDTFRKLCGCTCDVKPATSKVEAPKQVKKAAVKKEAAPKRTGKVLTAVINGKEMTVKEIAEAYDISTSTVRQRINAGKPESEIIAPTKKK”, the “soluble on expression in E. coli” value is on record as “not soluble”.

For the sequence “MGSDKIHHHHHHMSTSSGERVTVGTATASPGEAVRGAIPAGDLAGGVKVEIPVVVINGGGAGPTFWVNAAIHGDEPEGPLACALAVKQIDPAKLRGTVVMVPCVNPLAFSAAERGNPLDTFTYDMNRIYPGKPDGYFSDRVADAHWQAMKDVADLEISIHSGGAHSFLDKAIFVDERPESVELAKAMGEGWGCIMSNFTKAGSPMAAMNNAGKVDITVELGGRSYTSPDRFRYVGEELAKSILNICYHYDMLDGQATYPTDATIGQQEALLAPASGIFLPEPGVDFLTMMDNGTKIARIINIFGDEVGALHAPARGMFFGLRALPNVNQGDWCCFFNKVEGPRD”, the “soluble on expression in E. coli” value is listed as “not soluble”. With “MGSDKIHHHHHHMISQNRLRVLARELGVRQGYAEKNYVNSWILWGIFTSDFGENLMFKGGTALSKLYFPQSWRFSEDLDFGVEGQYNGSEDDLRDVLDTVTERSGIEFTISEHHESRQQHYPTHYVDMSIQYRAVLDHPNTTSLDVMVDEYVAFDSVHHTHSYEDIPEFELQAYSVEEIFAEKLRAIFQRGAARDYYDLYQLLETESVEIEFDVVLPAFEAKCDHDDLDVDLTTGLPGDQREDIQRQWETSLPDLTGDPPLFDTVWKRLDEAVIDKGTE”, the “soluble on expression in E. coli” value is reported as “not soluble”. For “MEDTAEENNESIDDQPSTSTATDPNQTRETEKEKGDDEMFRLLQATDEILENKAKSMNLSSLNVRSILHHLIKYPSTIDVLLGIRENDDLPSVRNMRSRKKPDDSGASSTVNTPKKFGALRIEDRGPKSFLDLEYEEDDEYDDDYIEENDTSTRNKLNAGSEEDEENDDEEEIEDEGEDEDDEEQDELEEDGEHEITGSEACTSGQNDTMHALLFDETSEDVQNEEDYVLNMTLNDTRAESVAPIPTLDNVDDDGFYRDFVTGINRTEKDNDNLEVLDTEDDPDDEDYNVCADDGLNVEDWDETRQDKTTQIPRHELKALMIDTLLAEKEIPLNAFPEEAINGEEHRKSQKVKDAEVYERINTSISSSSESCSLLKDSLATFRPQELQQLNMQLEQHVQLLTQLVVTCHHDVNLSHVRNSSQLMMNELDDIRQQKIYPTVFDVRNLDAAIESCHDINAFDAVDESFLKYAENTEGYGGIALRPEAAVVLSRSNAIRYPALLPSRQPFFIETPIPFLSEEDLMLAVALLQFAHLPRRGEKEMIDRYTAIQQHCLPARSSYKIRTHLKSMRRSDKNPIHQIMQAAEKGVCKLVLPLKSWQESDTPICQWPPASQPGWYRRFQETFNVTEERKILRKHVSTMVLTPVKNKDRQDQEASEATFESGEEGEDDEFVNMGTAPDGRKIIMGREHIEDLVHQLIKQNEISPSKRRKNPTPMKLSTMIQLEEAEKRIADSQKNSCGGQTISALSNVSGDSNVDNNGTHEKELMPSTSSIDSLESINNQETSKFPRPLPMSDQPTLNTSCHITTTTCSVSYEDVDVGTLKKSYVEITASKYETNSNSCFSYPIPPTPGRRSPDDFDDYFMDLESNSLMWPQTPYAVTDENPQTPRGFSASESSEPIDFSSLGKATSLDTEEIVFQSTSCQRPMGYCSDFGEFSNSSSLPEEIPVPSHQRTPQESAIEDDSSMPGLDMVPLYEEDVEECIIEDIEEEEAPIKQGLVNSRPPLRFKKEVKAGITNLAPSRKRTRIEREAMGSVGLDDEQLHDKQKENIMRKVIEDVNQRLFMHTDTYQRFKEAITDENLTDFEKVTRTIIILANHPELLNLVLLNAPPEAVISDLQCDHNYQSYKVAIEMIMDIERYITAAKLKEPSLKGLFRYIQSFLEDKPNMTDEQATKRFYELFGQDRPLWKKLESRFWCLPYKARPRLENYEYIDLTGLETMSKREKRDWNSIPPRFETVDDIDQVMGSVYRASKNEPPSNLVVKCGEFCIRNDDETYTQLEITERLWTRKDDISLLTSYNEALKTIPNFTVSQMPSLISDLSFGEKSIIARLQYLLTELKSLD” the value was “soluble”. For “RDPEGLLGDKEDLGITCALIPTDVKGVEIGNRHFPLNVPFQNGPTRGKDIFVPIDFIIGGEKMAGQGWRMLVECLSVGRGITLPSNSTGGIKSAAMATGAYSRIRRQFKQPIGHMEGVEEPLARLGGNAYVMDAASNLTVAGIDLGEKPSVISAIVKYHCTHRGQQSIIDAMDIVGGKGICLGPSNFLARGYQGSPIAVTVEGANILTRSMIIFGQGAIRCHPYVLEEMNAAYSEASDAVEKFDKALAGHVSFTMSNLVRSIWFGLSDGLGSSAPTKDATKRYYQQLNR”, the “soluble on expression in E. coli” value is “not soluble”.

For the sequence “MKVEIEPQTLRYQPKEIRETKRPTIAYEHPNALTYLKSMKENIIRFANKKSLYTQHDEYIKNVFMDERVNLKYHCESIVSYIAEAFIHYSVWDHSHAYYPGRPSQQTARTDALEGTSRTLPTLAAWLHANGRSNTIITGLNQQPILVPEILRKAFLAGTNPQHKGYWGTLHHCDQRVCEGADLALALWMSKEWVWDCFSIDEKCQIITWFKQVNQCETVDNNWHLFVLTVQIVLKALTGEDEVQYDKYERVKEFYVGDGWFRDGAKGNYDYYNAWAFHYSLYWFTQIDVDFDSTFINNALSDFVGNYRYFFGKEGFPFFGRSACYRLAAAAPLLAAVDLQSDKITIGEAKRAFHCNLKYFISNGALKAGLPTQGLFDEDVRLVDNYSGPASSLWSLRALNIALFCGEKINLWQAEEAPLAIEQGNFELDISAINMKILGVYETQEVIAIFKNEYTQDQSPLSRRLLAPSRWEQTIEKITGRANRPKNNLLRKGITCYSSKMESFFLEHHHHHH”, the “soluble on expression in E. coli” value is listed as “not soluble”. On to “MYFEGYGYRGSTFEQTYRCYPASFIDKPQLETGDKIIMPPSALDRLASLHIEYPMLFEVHNAAAERTSHCGVLEFIAEEGMIYMPYWMMQNLLLTEGDMVFIKNANLPKGTYVKLQPHTTDFLDISNPKAILEKTLRNYSCLTTGDSIMVAYNNKKYYIDIVETKPSNAISIIETDCEVDFAPPLDYKEPERQKAAVPPSTAPTAEEAAEEEPKFIPFTGPGRRLDGKAPKDKDVSASSPAKRQANATNSVQPSTASTSQSSSSRKTTEKLVFGPGGNRTSKETEKVPEKEPKEDPKKDEPKFSAFTGRKYSLKG”, for which the “soluble on expression in E. coli” value is “soluble”. Take “MNYELLTTENAPVKMWTKGVPVEADARQQLINTAKMPFIFKHIAVMPDVHLGKGSTIGSVIPTKGAIIPAAVGVDIGCGMNALRTALTAADLPENLAELRQAIETAVPHGRTTGRCKRDKGAWENPPFNVDAKWAELEAGYQWLTQKYPRFLNTNNYKHLGTLGTGNHFIEICLDESEQVWIMLHSGSRGIGNAIGTYFIDLAQKEMQDQLETLPSRDLAYFMEGTEYFDDYLRAVAWAQLFASLNRDAMMENVVTALQSITQKTVRQPQTLAMEEINCHHNYVQKEQLFGEEIYVTRKGAVSARAGQYGIIPGSMGAKSFIVRGLGNEESFCSCSHGAGRVMSRTKAKKLFSVEDQIRATAHVECRKDAEVIDEIPMAYKDIDAVMAAQSDLVEVIYTLRQVVCVKG”: the “soluble on expression in E. coli” value is listed as “not soluble”. On to “MLKVEMLSTGDEVLYGQIVDTNAAWLADFFFHQGLPLSRRNTVGDNLDDLVTILRERSQHADVLIVNGGLGPTSDDLSALAAATAKGEGLVLHEAWLKEMERYFHERGRVMAPSNRKQAELPASAEFINNPVGTACGFAVQLNRCLMFFTPGVPSEFKVMVEHEILPRLRERFSLPQPPVCLRLTTFGRSESDLAQSLDTLQLPPGVTMGYRSSMPIIELKLTGPASEQQAMEKLWLDVKRVAGQSVIFEGTEGLPAQISRELQNRQFSLTLSEQFTGGLLALQLSRAGAPLLACEVIPSQEETLAQTAHWITERRANHFAGLALAVSGFENEHLNFALATPDGTFALRVRFSTTRYSLAIRQEVCAMMALNMLRRWLNGQDIASEHGWIEVVESMTLSV”, for which the “soluble on expression in E. coli” value is on record as “not soluble”. For “MNRRVVIVTAVHGPSAPFLPEAYASLCAQELPDGWEWRWVIQEDGRTQDVRPHVPDDPRVVFHQGRHGRQGGPGVARTMALAHADGAYVKVLDADDRLTPGALARDLAALEADPSIGWATSRVLDLLPDGSTAGFPGDPAHGPIERGEVLDFWRANGFRAQVHPATLLVRRDLLLAVGGWMALPASEDTGLLLALNCVSRGWFTEDVGLLYRKWEGQETGQASHVDPAERDARMTVVEARARALASFGWRLPEGTGDFDHLEHHHHHH”, the “soluble on expression in E. coli” value is listed as “not soluble”.

On to “MSLRVDTLIRGGVVLTMDGDFTRHDAGYVAVTGGRISHVGADADAAGLSAERVIDAEGGIILPGFVNTHCHAAMTLFRGLADDVDLDGFLRTVWRAEAEHIGPASVELGAELAIAEMALSGVTHFLDMYWYPEATIAAAQRVGMGLTSGPPMLNVEGVDGMGWAERMAYTEGFLERYSGVDGVQPMLLPHGCYTLDADKLAEIANLARAAGCGVHIHAAEAAWEMQLVRDAYGTTPVRALERAGLLEQPLLLAHAVHLDGEEIALLADAGAGVAHCPLSNAKLASGMAPIGEMRASGVTLSLGTDGPASGNDLDMFATMRLAALVHNLRSGTSDTLPARDLVAMATSGGAMALGLGARTGSLEVGKQADITVVATDAPHNVPSYCPYSTLVFSAGRSEVRHVLARGRALVADGRPTTPTEPVKAEVRRLAADIANRRDEGHHHHHH”, for which the “soluble on expression in E. coli” value is on record as “soluble”.

As for “MGSDKIHHHHHHLEFWDGLSGGKAITPLKKEEIKHIEKQLGSRLPKSYLKKMEEQNGGDIAFNSVVVNFKNSWSDEETGLYLPLYEFMPLTIGKFVENTSVLNEWGLAGKKMIFGEGEGSYLWYFDFDENPKNPEVWCLDISDETAHLVAESFEALLPNLKKRANDDVLTHEDVFADYPSMCEIRETIKGTDEDARLEAYRMWLTRCEDLEGLIAELRQRVEHSDEEDELDSYAELLAEVLINYTSEEFMTYEEAIALFNKKEDVSDLSHVIVQLESEV”, the “soluble on expression in E. coli” value is reported as “not soluble”. The entry for “MLSTIRYYYEHSLIEEKTKHQELSWQTPISRSLVTHDPSTGGIQLSKKNAMLNDAVTTTTTVEVFRAPTNTDMISLTPASNGGPPLLVRTNGPQYEQWNDRRVQTMMVDDDRRDLAKGVQWKERLIEESDRRYRDNGSDFYDEITEPTQFIHHDYRPKPLGFQTITHPIIMTGSRDDLRSQPPQYPAPLSPLYIVPDRHRNIANSVSPGQYSRRSNGYEDRRKDTEELRDERKRENEQNQNRERYHHRRSKSSNRDDASVSHRSLRHRSMSPASRRSFGTSLGGSQEFVIPAHSPIGSTLMLASPDPNELPGRPASAKSQEIFALYQTRDAYNRIVDQL” is “not soluble”. For “NDSLVLFSTDLKLLWANRSAEHLYGDYVEQLVGQEFTSLKGARGIPSDAIAVRASLGSGEPCYERVSAADGRIWDMKYFPVRGED”, the “soluble on expression in E. coli” value was “not soluble”. The entry for “MVIERSCMGDLDKNPAVKAMVVFRKAMRTIDAQVAPSYKNNGLTQTQFAVLDVLYAKGEMTISRLIASILATSGNMTVVIKNMERNGWIYRSPNPDDRRASVVGLTEVGKQLIQKALPDHIAMVEAAFSVMTEEEQLVLIDLLKKFKSL” is “not soluble”; for “MKKFKNILFATQGLPGHSDALEQAIQLAYNNRGQLAGLIAFPAFPADLQRYQEPYEQSYLNTLMETVEACRSQHHIHKDEVPFPLMVEHSEQPAVAIIKSALNHHIDLLIKEAEPMTHSQQGFKALDMTLLRKCPCPVWLHRPLAKPKANRRVAVAIDPITTTEQQKALALRLLELSRSIANTCDSRLHIVSCWEYYLENYLHDQVWIQVEQQQIAEEIAQAKIRHEQALRQLIDESGITGELVIHHLHGKPDELIPEWVTQENIDILVMGTLARTGIAGFVIGNTAENIVQSIECSLVALKPEGFVSPIKNE” it is “soluble”; for “VSKDRLYFRQLLSGRDFAVGDMFATQMRNFAYLIGDRTTGDCVVVDPAYAAGDLLDALESDDMQLSGVLVTHHHPDHVGGSMMGFQLPGLAELLERASVPVHVNTHEALWVSRVTGIPVGDLITHEHGDKVSVGDIDIELLHTPGHTPGSQCFLLDGRLVAGDTLFLEGCGRTDFPGGDSDEMYRSLRQLAELPGDPTVFPGHWYSAEPSASLSEVKRSNYVYRPASLDQWRMLMGG” it is “not soluble”.
